For experiment [1], the target named is T1, CD47 (human, UniProt Q08722 19-323).
T1 construct: whole, on cells; Human by the cells used (blood of human donors; human Ramos, A549, BT474, Raji, Namalwa cells); also called human CD47
As to the kind of experiment: flow cytometry on CD47-low human Ramos cells. How it is done: (§1) After washing again, cells were fixed with 1% formaldehyde in PBS. Cells were analyzed by flow cytometry (MACSQuant, Miltenyi Biotec, Cologne, Germany).
On the technique in general: In flow cytometry, cells or beads pass a laser one at a time.

For experiment [2], the target named is T1, CD47. Description: flow cytometry on CD47-high (CD47-transfected) CHO cells. How it is done:
as §1

For another experiment, the target named is T2, HER2 (human, UniProt P04626 23-1255).
T2 construct: whole, on cells; The cells carry CD47 as well
Description: flow cytometry on BT474 cells. How it is done: After washing with PBS+1% FBS, cells were incubated with FITC F(ab′)2 goat Anti-Human IgG, Fcγ (Jackson ImmunoResearch, West Grove, Pa.), diluted 1:200 in PBS+1% FBS for 60 min on ice. After washing again, cells were fixed with 1% formaldehyde in PBS. Cells were analyzed by flow cytometry (MACSQuant, Miltenyi Biotec, Cologne, Germany).

Experiment [3] concerns the target T1, CD47. Description: flow cytometry on CD47-transfected CHO cells.

B1: chimeric antibody B6H12/huIgG1 (antibody, V domains shown)
VH: EVQLQESGGDLVKPGGSLKLSCAASGFTFSGYGMSWVRQTPDKRLEWVATITSGGTYTYYPDSVKGRFTISRDNAKNTLYLQIDSLKSEDTAIYFCARSLAGNAMDYWGQGTTVTVSS
VL: DIVITQSPATLSVTPGDRVSLSCRASQTISDYLHWYQQKSHESPRLLIKFASQSISGIPSRFSGSGSGSDFTLSINSVEPEDVGVYYCQNGHGFPRTFGGGTKLEIKR
notes: also called anti-CD47; anti-CD47 huIgG1
On to B1, for which the half-maximal effective concentration (EC50) was 6 nM with CD47 [1] and 7 nM with CD47 [2].

B2: Fcab(HER2) (other)
chain: EPKSSDKTHTCPPCPAPELLGGPSVFLFPPKPKDTLMISRTPEVTCVVVDVSHEDPEVKFNWYVDGVEVHNAKTKPREEQYNSTYRVVSVLTVLHQDWLNGKEYKCKVSNKALPAPIEKTISKAKGQPREPQVYTLPPSRDEYLYGDVSLTCLVKGFYPSDIAVEWESNGQPENNYKTTPPVLDSDGSFFLYSKLTVPRHSARMWRWAHGNVFSCSVMHEALHNHYTQKSLSLSPGK
notes: also called anti-HER2 Fcab H10-03-6
As for B2, the binding result is on record as “binds” with HER2 and “no binding” with CD47 [3].

B3: anti-CD20 huIgG1 (antibody, V domains shown)
VH: QVQLQQPGAELVKPGASVKMSCKASGYTFTSYNMHWVKQTPGRGLEWIGAIYPGNGDTSYNQKFKGKATLTADKSSSTAYMQLSSLTSEDSAVYYCARSTYYGGDWYFNVWGAGTTVTVSA
VL: QIVLSQSPAILSASPGEKVTMTCRASSSVSYIHWFQQKPGSSPKPWIYATSNLASGVPVRFSGSGSGTSYSLTISRVEAEDAATYYCQQWTSNPPTFGGGTKLEIKR
notes: Control in standard monoclonal antibody format, huIgG1, based on 2B8 (rituximab); not shown: rest of the human IgG1 heavy chain
As to B3, the binding result with CD47 [3] is listed as “no binding”.

A word on the EC50: it is the concentration needed to bring the measured effect to its halfway point. High values mean weaker potency, low ones greater potency.

Source of the values: patent publication US20160177276A1 (Merck KGaA, published 2016).
